Consider 1 molecule from US20220251236A1 (Boehringer Ingelheim, published 2022).

Where only a bound is given, the exact number is not on record here.

In assay [1] the target is T1, Cyno DLL3-His (cynomolgus monkey, UniProt Q9NYJ7 27-492 (human entry)).
T1 construct: also called cy DLL3; recombinant cyno DLL3-ECD
T1 chain: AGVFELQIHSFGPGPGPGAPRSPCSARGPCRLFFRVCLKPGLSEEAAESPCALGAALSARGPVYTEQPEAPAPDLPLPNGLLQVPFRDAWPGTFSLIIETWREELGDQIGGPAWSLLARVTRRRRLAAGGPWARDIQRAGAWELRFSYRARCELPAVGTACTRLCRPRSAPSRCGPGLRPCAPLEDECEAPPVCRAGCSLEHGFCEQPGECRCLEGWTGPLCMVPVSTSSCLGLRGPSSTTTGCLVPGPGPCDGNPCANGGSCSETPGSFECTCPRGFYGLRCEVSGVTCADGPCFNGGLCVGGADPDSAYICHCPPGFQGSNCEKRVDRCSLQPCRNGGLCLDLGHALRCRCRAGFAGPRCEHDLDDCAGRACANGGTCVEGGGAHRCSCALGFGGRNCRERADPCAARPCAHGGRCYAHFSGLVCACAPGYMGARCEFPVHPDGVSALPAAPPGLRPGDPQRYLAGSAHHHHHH
Briefly: SPR; ratio of the KD values for human and cyno DLL3. How it is done: (§1) The binding affinity of purified DLL3/CD3 bispecific constructs for recombinant human and cyno DLL3-ECD and Fc-fusion proteins of human and cyno CD3 εγ subunits was determined by Surface Plasmon Resonance (SPR), using a ProteOn XPR36 instrument (Bio-Rad). The running buffer and all dilutions (except where stated) were done in PBS-T-EDTA. The GLM sensor chip (Bio-Rad) was normalized and pre-conditioned as per the manufacturer's recommendations. The sensor chip was activated with equal mixture of EDC/s-NHS in the horizontal direction for 300 sec at a flow rate of 30 ul/min and immobilized with protein A/G (20 ug/ml in 10 mM acetate pH 4.5) in the horizontal direction for 300 sec at a flowrate of 30 ul/min resulting in ˜5000 RU of protein A/G on the surface. The sensor chip was deactivated with 1M ethanolamine HCl in the horizontal direction for 300 sec at a flowrate of 30 μl/min.
(§2) For binding kinetic determination to DLL3, bispecific molecules were captured individually on the protein A/G surface vertically for 250 sec at a flowrate of 25 μl/min. The baseline was stabilized by injecting PBS-T-EDTA for 60 sec at a flowrate of 40 μl/min horizontally. The analyte (hu DLL3 or cy DLL3) was injected horizontally over the captured antibody for 600 sec at a flowrate of 40 μl/min and a dissociation for 2700 sec.
(§3) The inter spot (interactions with sensor surface) and blank (PBS-T-EDTA) were subtracted from the raw data.

Assay [2] concerns the target T2, trypsin inhibitor from glycine max soybean (Glycine max (soybean)).
T2 construct: also called Tryp
Briefly: SPR (Biacore T200), trypsin inhibitor on CM5 chip, sample at 1 µM. The source says:
To prepare the surface for the non-specific binding experiment, chicken egg white lysozyme and trypsin inhibitor from glycine max soybean were coupled manually to a series S CM5 chip with the surface density of 3000-5000 RU using the amine coupling kit according to the manufacture instructions.

For assay [3], the target named is T3, Human DLL3-His (human, UniProt Q9NYJ7 27-492).
T3 construct: also called huDLL3-His; hu DLL3
T3 sequence: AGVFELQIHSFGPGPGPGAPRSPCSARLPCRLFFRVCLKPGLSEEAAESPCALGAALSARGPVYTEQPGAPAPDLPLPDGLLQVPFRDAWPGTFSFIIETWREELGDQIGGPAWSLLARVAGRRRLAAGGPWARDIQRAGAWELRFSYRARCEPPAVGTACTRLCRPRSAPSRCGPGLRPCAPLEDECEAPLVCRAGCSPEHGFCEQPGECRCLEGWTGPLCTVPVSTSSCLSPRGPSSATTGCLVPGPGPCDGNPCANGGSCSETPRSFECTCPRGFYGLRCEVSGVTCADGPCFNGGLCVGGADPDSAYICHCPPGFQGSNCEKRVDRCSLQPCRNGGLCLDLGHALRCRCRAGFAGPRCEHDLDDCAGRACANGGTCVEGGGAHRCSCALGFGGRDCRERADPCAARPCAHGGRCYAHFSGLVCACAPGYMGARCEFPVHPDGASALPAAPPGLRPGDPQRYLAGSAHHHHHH
Briefly: SPR (ProteOn XPR36), bispecific captured on protein A/G, DLL3 as analyte, Example 4A. The protocol:
as §1, §2, §3

Assay [4] addresses T1, Cyno DLL3-His. Described as above. How it is done: as §1, §2, §3
Assay [5] has as its target T4, Human CD3 E+G HuFc-6xHis (human).
T4 construct: also called hu CD3εγ-Fc
Briefly: SPR (ProteOn XPR36), HuCD3E_HuCD3G-Fc amine-coupled, bispecific as analyte, Example 4B. In outline:
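Human CD3ε/γ-Fc fusion is amine-coupled to the chip at pH 4.5. Anti-DLL3/CD3 bispecifics are injected as analyte in PBS-T-EDTA at 30 μl/min, with 600 s association and 1800 s dissociation. Binding kinetics are measured by SPR.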

The target in assay [6] is T3, Human DLL3-His. Briefly: SPR (ProteOn XPR36), bispecific captured on protein A/G, hu DLL3 as analyte, Example 4B. The protocol: The binding affinity of purified DLL3/CD3 bispecific constructs for recombinant human DLL3-ECD and Fc-fusion protein of human CD3 εγ subunits was determined by Surface Plasmon Resonance (SPR), using a ProteOn XPR36 instrument (Bio-Rad).
For binding kinetic determination to DLL3, anti-DLL3/CD3 molecules were captured individually on the protein A/G surface vertically for 200 sec at a flowrate of 30 μl/min. The baseline was stabilized by injecting PBS-T-EDTA for 60 sec at a flowrate of 30 μl/min horizontally. The analyte (hu DLL3) was injected horizontally over the captured antibody for 300 sec at a flowrate of 30 μl/min and a dissociation for 1800 sec.

In assay [7] the target is T4, Human CD3 E+G HuFc-6xHis. Briefly: SPR (ProteOn XPR36), CD3εγ-Fc amine-coupled, bispecific as analyte, equilibrium fit, Example 4A. How it is done: as §1
For binding kinetic determination to CD3, hu CD3εγ-Fc and cy CD3εγ-Fc (dissolved in pH 4.5 acetate) was immobilized directly onto the sensor surface through amine coupling for 140 sec at a flowrate of 30 μl/min vertically. The baseline was stabilized by injecting PBS-T-EDTA for 60 sec at a flowrate of 40 μl/min horizontally. The analyte (the bispecific molecule) was injected horizontally over the captured CD3εγ-Fc construct for 600 sec at a flowrate of 40 μl/min and a dissociation for 600 sec.
as §3

T4 sequence (chain, as listed by the source limits assumed): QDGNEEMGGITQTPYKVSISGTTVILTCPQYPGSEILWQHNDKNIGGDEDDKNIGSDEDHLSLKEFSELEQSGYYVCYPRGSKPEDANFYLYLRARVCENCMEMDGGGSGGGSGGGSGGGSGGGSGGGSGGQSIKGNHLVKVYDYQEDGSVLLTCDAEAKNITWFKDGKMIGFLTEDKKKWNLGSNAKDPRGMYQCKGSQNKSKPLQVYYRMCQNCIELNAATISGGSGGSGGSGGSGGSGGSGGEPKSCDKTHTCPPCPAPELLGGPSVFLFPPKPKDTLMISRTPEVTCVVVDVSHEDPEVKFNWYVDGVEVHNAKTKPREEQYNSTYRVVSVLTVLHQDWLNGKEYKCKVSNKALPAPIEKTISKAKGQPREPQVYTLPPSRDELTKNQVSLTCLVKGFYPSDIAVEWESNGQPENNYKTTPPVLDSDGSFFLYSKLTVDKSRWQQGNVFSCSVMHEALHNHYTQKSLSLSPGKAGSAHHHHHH
T2 sequence (P01070 25-205): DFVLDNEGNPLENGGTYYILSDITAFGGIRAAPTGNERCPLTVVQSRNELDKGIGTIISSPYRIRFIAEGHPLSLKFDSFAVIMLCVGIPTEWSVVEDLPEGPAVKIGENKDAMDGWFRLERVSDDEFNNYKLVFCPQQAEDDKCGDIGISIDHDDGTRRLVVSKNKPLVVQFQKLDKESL

B1: DLL3#3/CD3#3 (bispecific antibody, human IgG1, kappa, lambda, L234A L235A)
chain 1: DIQMTQSPSAMSASVGDRVTITCRASQGISNYLVWFQQKPGKAPKRLIYAVSSLYSGVPSRFSGSGSGTEFTLTISSLQPEDFATYYCLQHDSYPYTFGQGTKLEIKRTVAAPSVFIFPPSDEQLKSGTASVVCLLNNFYPREAKVQWKVDNALQSGNSQESVTEQDSKDSTYSLSSTLTLSKADYEKHKVYACEVTHQGLSSPVTKSFNRGECGGGGSEGKSSGSGSESKSTEGKSSGSGSESKSTGGGGSQVQLVQSGAEVKKPGASVKVSCKASGYTFTSYYVHWVRQAPGQGLEWMVIINPGGGTTSYAQKFLGRVTMTRDTSTNTVYMELKSLRSEDTAVYYCARGEAVTGNYFYYGMDVWGQGTTVTVSSASTKGPSVFPLAPSSKSTSGGTAALGCLVKDYFPEPVTVSWNSGALTSGVHTFPAVLQSSGLYSLSSVVTVPSSSLGTQTYICNVNHKPSNTKVDKRVEPKSCDKTHTCPPCPAPEAAGGPSVFLFPPKPKDTLMISRTPEVTCVVVDVSHEDPEVKFNWYVDGVEVHNAKTKPREEQYNSTYRVVSVLTVLHQDWLNGKEYKCKVSNKALPAPIEKTISKAKGQPREPQVYTLPPSREEMTKNQVSLWCLVKGFYPSDIAVEWESNGQPENNYKTTPPVLDSDGSFFLYSKLTVDKSRWQQGNVFSCSVMHEALHNHYTQKSLSLSPG
chain 2: EAVVTQEPSLTVSPGGTVTLTCRSSTGAVTTSNYANWVQEKPGQLPRGLIGGTNKRAPWVPARFSGSLLGGKAALTLSGAQPEDEAEYFCALWYSNLWVFGGGTKLTVLGQPKAAPSVTLFPPSSEELQANKATLVCLISDFYPGAVKVAWKADGSPVNTGVETTTPSKQSNNKYAASSYLSLTPEQWKSHRSYSCQVTHEGSTVEKTVAPAECSGGGGSEGKSSGSGSESKSTEGKSSGSGSESKSTGGGGSEVQLVESGGGLVQPGGSLKLSCAASGFTFNTYAMNWVRQAPGKGLEWVARIRSKYANYATYYADSVKDRFTISRDDSKNTAYLQMNNLKTEDTAVYYCVRHGNFGNSYVSWFAYWGQGTLVTVSAASTKGPSVFPLAPSSKSTSGGTAALGCLVKDYFPEPVTVSWNSGALTSGVHTFPAVLQSSGLYSLSSVVTVPSSSLGTQTYICNVNHKPSNTKVDKRVEPKSCDKTHTCPPCPAPEAAGGPSVFLFPPKPKDTLMISRTPEVTCVVVDVSHEDPEVKFNWYVDGVEVHNAKTKPREEQYNSTYRVVSVLTVLHQDWLNGKEYKCKVSNKALPAPIEKTISKAKGQPREPQVYTLPPSREEMTKNQVSLSCAVKGFYPSDIAVEWESNGQPENNYKTTPPVLDSDGSFFLVSKLTVDKSRWQQGNVFSCSVMHEALHNRFTQKSLSLSPG
notes: Heterodimer of one DLL3 chain and one CD3 chain (scFab-Fc, knob-in-hole)
In the case of B1, the “Affinity gap KD hu/cyno DLL3” value in assay [1] is 1. For the same molecule, the “Non-specific binding (RU)” value in assay [2] was 28 RU. The Kd was less than 0.01 nM in assay [3]; less than 0.01 nM in assay [4]; 4 nM in assay [5]; 0.116 nM in assay [6]; 68 nM in assay [7].
